These results are taken from article PMC3299731 (PLoS ONE, 2012).

Series [1] addresses T1, translin (human, UniProt Q15631 1-228). Description: EMSA; 50 nM octamer, 100 nM DNA; 25 mM Tris-HCl pH 8.0, 100 mM NaCl, 1 mM EDTA, 30 min; temperature not stated; 4.5% native PAGE in 0.5x TBE. The settings on record: protein: recombinant; tags: N-terminal 6xHis; chain copies: 8; label: 5'-32P (unlabeled in agarose EMSA). On the technique in general: Mobility shift assays separate free from complexed probe on a gel.

For series [2], the target named is T1, translin. Description: UV-laser crosslinking (248 nm); 50 pmol each in 50 uL; 25 mM Tris-HCl pH 8.0, 100 mM NaCl, 1 mM EDTA, 30 min; temperature not stated; 4.5% native PAGE in 0.5x TBE. As to conditions: protein: recombinant; tags: N-terminal 6xHis; chain copies: 8; label: 5'-32P (unlabeled in agarose EMSA).
Series [3] concerns the molecule itself. Description: SEC; purified homomeric 6×His-translin proteins on Superdex 200 10/300 GL calibrated with molecular weight markers (29-440 kDa); octamer. For orientation: In gel filtration, larger molecules generally elute earlier.

Substitutions are numbered along the chain they refer to.

B1: Bcl-CL1 24-mer (ssDNA)
DNA: GCCCTCCTGCCCTCCTTCCGCGGG
In the case of B1, the binding result in series [1] and in series [2] was “binds” throughout.

B2: Mutant of basic-2 motif of human translin, homomeric, N-terminal 6×His tag (natural protein, UniProt Q15631 1-228, looked up)
chain: MSVSEIFVELQGFLAAEQDIREEIRKVVQSLEQTAREILTLLQGVHQGAGFQDIPKRCLKAREHFGTVKTHLTSLKTKFPAEQYYTFNENWRFVLQRLVFLAAFVVYLETETLVTREAVTEILGIEPDREKGFHLDVEDYLSGVLILASELSRLSVNSVTAGDYSRPLHISTFINELDSGFRLLNLKNDSLRKRYDGLKYDVKKVEEVVYDLSIRGFNKETAAACVEK
notes: human translin with the B2 motif mutated, expressed from pQE9-translinB2; also called translinB2; translinB2 mutant; source: E. coli BL21(DE3), pQE9-translinB2, purified (Ni-IDA, Q-sepharose, Superdex 200); not shown: 6×His, N-terminal, kept
As a reminder, the stoichiometry N is the number of molecules, sites or subunits per partner or assembly. Consider B2, for which the “stoichiometry N” value in series [3] was determined as 8.

B3: Mutant of basic-3 motif of human translin, homomeric, N-terminal 6×His tag (natural protein, UniProt Q15631 1-228, looked up)
chain: B2 chain with T86R, N88H, N90H, R192T, K193N, R194S, Y195N
notes: human translin with the B3 motif mutated, expressed from pQE9-translinB3; also called translinB3; translinB3 mutant; source: E. coli BL21(DE3), pQE9-translinB3, purified (Ni-IDA, Q-sepharose, Superdex 200); not shown: 6×His, N-terminal, kept
In the case of B3, the “stoichiometry N” value in series [3] worked out at 8.
